# Assay results published in patent publication US20260126450A1.
# Assays:
# [1] = biological target: surface HIV-1 Env BG505 SOSIP (HIV-1 BG505.DS-SOSIP trimeric antigen), membrane-bound on HEK293 cells (HIV-1); assay: droplet co-expression, FACS sort for anti-Kappa-FITC, NGS of VH genes
# [2] = biological target: surface HIV-1 Env BG505 SOSIP (HIV-1 BG505.DS-SOSIP trimeric antigen), membrane-bound on HEK293 cells (HIV-1); assay: FACS, anti-Kappa-FITC stain of HEK293 cells co-expressing surface Env and secreted IgG1 after 24 h in droplets
substance,measurement,setting,value
VRC01 (antibody),Enrichment Ratio (FITC+ prevalence / FITC- prevalence),[1],2
same,fold anti-Kappa binding against cells expressing 1-20,[2],> 5 fold
